The source of these data is patent publication US20210037856A1, “Ruminant Feed Composition Comprising A Muramidase” (Novozymes A/S, priority 2018, published 2021).

In this experiment the test system is rumen fluid. The experiment is described as follows: in vitro ruminal fermentation, 22 muramidases, 12 h (Example 4). Further details: species or system cow; DMd: unit not given here. To be noted: muramidase 0.20 mg/40 ml; for Acetate / Butyrate / Propionate: VFA production after 12 h; for DMd: dry matter digestibility after 12 h of ruminal fermentation in vitro; for Total VFA: sum of VFA after 12 h; for Carbon in VFA: summed carbon in VFA after 12 h. How it is done:
The trial was performed by Alimetrics (Alimetrics Ltd, Koskelontie 19B, FIN-02920 Espoo, Finland) using 120 mL serum bottles as fermentation vessels. The fermentation preparation and procedure is presented in Kettunen et al., (Kettunen H., J. Vuorenmaa, D. Gaffney and J. Apajalahti (2016): Yeast hydrolysate product enhances ruminal fermentation in vitro. J. App. Anim. Nutr., Vol. 4; e1; page 1 of 7). In short, the method is as follows: All bottles were initially filled with 1 g of feed DM composed from corn silage, barley meal, soybean meal, at the amounts of 0.5, 0.4, and 0.1 g DM, respectively. Subsequently, the bottles were flushed with CO2 passed through a hot copper catalyst for O2 scavenging and sealed with thick butyl rubber stopper. Anaerobic, reduced and temperature adjusted (+38° C.) artificial saliva buffer solution (Modified from Agriculture Handbook No. 379, (USDA, Washington, D.C., 1975), volume of 37.65 ml), freshly strained rumen fluid (5% inoculum; volume of 2 ml), and test compounds (volume of 0.35 ml) was introduced into the fermentation vessels under the oxygen-free CO2 flow. Following rumen fluid was collected from a ruminal cannulated cow. Rumen fluid was pumped directly from the rumen into a preheated thermos and immediately closed, and transported to Alimetrics laboratory. The rumen fluid was used for inoculation within 2 hours of harvest. To ensure that both liquid and particle associated ruminal microbes were present in the inoculum both fractions were obtained. Liquid and solid fractions were strained through a metal mesh (grid size 3×3 mm) under anaerobic conditions prior to buffer dilution.
Following inoculation with rumen fluid, buffer and test solution, the vessels were sealed with the butyl rubber septum's. All fermentation vessels were inoculated in random order to prevent the possible block effects. Inoculation time for each fermentation vessel was registered and was taken into account op on each sampling to ensure that duration of the fermentation was the same for each sample. The fermentation was continued for 12 h in a gyratory shaker at +38° C. Fermentation gas produced was measured and relived by collection of the fermentation gas in syringes at time 3, 6, 9, and 12 h. Feed residues were measured after 12 h fermentation.
The trial design was a dosage response, complete randomized design with 27 treatments using 145 fermentation vessels according to table 5. […] Negative control was supplemented with the same buffer solution that was used for diluting the enzymes to reach the same liquid volume as the supplemented fermentation vessels. The ionophore Monensin (Monensin sodium salt, 90-95% TLC (Sigma Aldrich; Product code: M5273-1G)) was chosen as a positive control because it is a ruminants feed additive that affects volatile fatty acids (VFA) production.
Liquid Samples Obtained at 12 h were Analyzed for the Concentration of VFA (Acetate, Propionate, butyrate, and valerate) by GC-FID using a glass column packed with 80/120 carbopack B-DA/4% Carbowax stationary and helium as a carrier gas (Kettunen H., J. Vuorenmaa, T. Rinttilä, H. Grönberg, E. Valkonen and J. Apajalahti (2015): Natural resin acid-enriched composition as a modulator of intestinal microbiota and performance enhancer in broiler chicken. J. App. Anim. Nutr., Vol. 3; e2; page 1 of 9).
Digestibility of dry matter was quantified by determination of dry matter in the original feed matrix and in all fermentation vessels after 12 h of fermentation. Feed residues from the fermentation vessels were obtained by filtration tared sintered glass filters, washed with water and dried at 105° C. for 12 hours. Finally, the glass filters are weighed for the residual feed dry matter.
Dry matter digestibility (DMd) was calculated at the ratio between feed residues after end fermentation and the dry matter fed. […]

B1: Y: mature muramidase polypeptide from Ovatospora brasiliensis, novel MUR polypeptide; Y in Example 4 (protein, listed as Ovatospora brasiliensis)
chain: YPVKADSLNCRSGPGTSYKVVKTYKKGADIKISCQTEGPSVNGDNLWIKTQDGCYVADYYVKTGTNGYVAKKCSSGGSTGGGSGGGKGNLPGLNAKQSSHARAIVAQAKKDGVGLHGCEAGIATALVESGIKVYANKKVPASLKYPHDAVGSDHDSIGIFQQRAVYYPNIAADMDPARSAHQFFAKMKGVSGWKTMAVGKLCQKVQVSAYPDRYAKRVSEATKICKAAGI
Molecule B1 gave an Acetate of 50.8 mmol/L, a Butyrate of 6.1 mmol/L, a Propionate of 43.1 mmol/L and a DMd of 0.57. Further, the “Total VFA” value came to 100 mmol/L and the “Carbon in VFA” value was determined as 258 mmol/L.

B2: T: mature muramidase polypeptide from Chaetomium sp., novel MUR polypeptide; T in Example 4 (protein)
chain: YHIKGSIVNCRAGPGTSHAVKKTYAKGQNVQISCQTTGNIIHGNNIWDLTQDGCYVADYYVKTGTDGFVTDKCSSSGNSGVSGTSTSSVGGAAGPMKDDYPYKSNCEGTDPWLYFKCQCTSFVAWRINERLGIKFHNQYKGVNWGDANTWDDAAKRTGVTVNKTPKPGCVAQTDKGTWGHVAWVAAVGDETVTIEEYNYGGKERYGTRTVPKGEFDYIHVKN
modifications: Chaetomium sp
On to B2, for which the Acetate is recorded as 53.6 mmol/L, the Butyrate stood at 7.8 mmol/L, the Propionate was 45.1 mmol/L and the DMd was found to be 0.57. The “Total VFA” value is recorded as 107 mmol/L and the “Carbon in VFA” value is given as 277 mmol/L.

B3: N: mature muramidase polypeptide from Ovatospora brasiliensis, GH25; N in Example 4 (protein, listed as Ovatospora brasiliensis)
chain: FDISNWQPAGTVDFAAAYSSGARFVIIKATEGTSYIDPSFSSHYTKATNAGFIRGGYHFAHPGETTGAAEADYFIAHGGGWSNDGITLPGMLDLESENKGQCWGLSTSAMVSWIKSFSDRYKSRTGVYPLIYTNPSWWSACTGNSNAFVNTNPLVLARYASAPGTIPGGWPYQTIWQNSDSYAYGGDSDIFNGSLDRLKALAKGS
Turning to B3, the Acetate is reported as 49.3 mmol/L, the Butyrate is 7.2 mmol/L, the Propionate amounted to 40.8 mmol/L and the DMd is listed as 0.59. In addition, the “Total VFA” value was found to be 98 mmol/L and the “Carbon in VFA” value is 253 mmol/L.

B4: W: mature muramidase polypeptide from Chaetomium sp., novel MUR polypeptide; W in Example 4 (protein)
chain: YPITGDPLNCRSGPGTSYAIKKSYTKGADIKISCQTEGTSVNGNSIWDKTQDGCYVADFYVKTGVDGYVTKKCSGGGGDTGGGSGGIPGPVKDDYPYKSSCGGVDPWNYYKCQCTSFVAWRINKRLGIKFHNQYKGTNWGNANTWDNAAKKTGVKVNSTPKPGAIAQSNAGNYGHVAWVTAVNGNKVTIEEYNWGKREGYGKRTVDKSAFNYIHVKA
modifications: Chaetomium sp
In turn, B4 registered an Acetate of 48.9 mmol/L, a Butyrate of 6.7 mmol/L, a Propionate of 40.9 mmol/L and a DMd of 0.59. Further, the “Total VFA” value worked out at 97 mmol/L and the “Carbon in VFA” value came to 250 mmol/L.

B5: S: mature muramidase polypeptide from Aspergffius sp., novel MUR polypeptide; S in Example 4 (protein, listed as Aspergillus sp.)
chain: YPVKADVHCRSGPGTSYSIVKTYSTGTQISVSCQAAGTDVDGDQLWDKTSDGCYVSDYYVSTGSSNYVTSHCPTEYAIKTDVNCRSGPGTNYGIVKTYNQGVMVSLNCQASGTDVDGDSLWDKTSDGCYVSDYYVATGSSSYVTSACSGSSSSGGGGSSSSGNLPSLDSTQSAHARAIIGEAKSQNVGRQGCLAGIATALVESSMLMYANSNVAASLSYPHDAVGSDYDSVGLFQQRVSIYTNLAADMDAAQSAGQFFDEMKKVSGWETMNVGDLCQEVQRSAYPDRYAGEVSTAESICSAGGL
As to B5, the Acetate was 49.4 mmol/L, the Butyrate was 7.1 mmol/L, the Propionate came to 41.2 mmol/L and the DMd is listed as 0.58. The “Total VFA” value stood at 98 mmol/L and the “Carbon in VFA” value is given as 254 mmol/L.

B6: V: mature muramidase polypeptide from Acremonium exiguum, novel MUR polypeptide; V in Example 4 (protein, listed as Acremonium exiguum)
chain: RSIPIVARAYPGLDDVQSRNAEAALGEIRAEGINPARQACLAVISTALQESELYIYANPAVPESMNYPHDREGGDQDSVGMFQQRPEWYPDIAADMSASGSTRQFLAAMLQVPGWQTMEVSALDQEVQKAEAGNLYGQRIPLATQVCDAAGF
Molecule B6 gave an Acetate of 49.2 mmol/L, a Butyrate of 7.1 mmol/L, a Propionate of 40.6 mmol/L and a DMd of 0.59. The “Total VFA” value worked out at 97 mmol/L and the “Carbon in VFA” value stood at 252 mmol/L.

B7: U: mature muramidase polypeptide from Zopfiella Sp., novel MUR polypeptide; U in Example 4 (protein)
chain: YPIKGDTVNCRSGPGTSFAVKKTYAKGKDIKITCQTTGTSVNGNNIWDKTSDGCYVADYYVKTGKDGFVTDKCDASSVPKPPATKIPGPVTNDYPYKSSCGGVDPWNYYKCQCTSFVAWRVNKRLGKKFHNRYKGHAWGNANQWDEAAKQSGVKVNSTPKPGCIAQTNAGSYGHVAWVTAVGKDTVTIEEYNWNKKLGYGTRTVAKSKFNYIHLEP
modifications: Zopfiella sp
Regarding B7, the Acetate was 49.1 mmol/L, the Butyrate is 7.1 mmol/L, the Propionate turned out to be 40.5 mmol/L and the DMd is on record as 0.60. Also, the “Total VFA” value is reported as 97 mmol/L and the “Carbon in VFA” value turned out to be 251 mmol/L.

B8: Z: mature muramidase polypeptide from Penicillium wellingtonense, novel MUR polypeptide; Z in Example 4 (protein)
chain: YPITGDVVNCRSGPGTTYDVVKSYKLNADVSITCQAPGTDVKGDSVWDKTADGCYVADYYVKTGSSSYVTTKCGGDDDGGDNDGGSSGNLPGLTSTQSKHAKDIIAEAKSEDLGRQGCLAGIATAIVESNILIYANSGVPESLKYPHDAVGSDHDSVGIFQQRAMFYKDIAADMDAGKSAGQFFGKMKAVSGWKSMDVGTLCQKVQGSAYPSRYAEQVSKAEKICKAGGL
modifications: Penicillium wellingtonense
As for B8, the Acetate is recorded as 48.7 mmol/L, the Butyrate was determined as 6.9 mmol/L, the Propionate amounted to 39.6 mmol/L and the DMd turned out to be 0.56. The “Total VFA” value stood at 96 mmol/L and the “Carbon in VFA” value was determined as 247 mmol/L.
